Laboratory results taken from the supplement of paper PMC9170038.

Tested on: MS2 coat protein
Assay: apparent KD of MS2 coat protein; designed switch direction (-1 OFF switch, 1 ON switch): 1; higher = weaker reporter binding
In short: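 On Illumina chips, designed RNA switches with common flanks were made by stalled E. coli RNA polymerase. Titrations with SNAP-549-labelled MS2 coat protein, doubling from 0.7 or 1.5 nM to 3 µM, were done with no input, with 200 uM small-molecule ligand, or with an oligonucleotide input. Apparent KD is the median per design over clusters, from curve fits of normalised cluster fluorescence.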

[1] = input ligand: microRNA oligo, concentration not stated
[2] = Eterna round: R95, input ligand: FMN 200 uM
[3] = Eterna round: R95, input ligand: microRNA oligo, concentration not stated
[4] = Eterna round: R95, input ligand: none

| Sequence | apparent KD of MS2 coat protein (input ligand: FMN 200 uM) [nM] | apparent KD of MS2 coat protein [1] [nM] | apparent KD of MS2 coat protein (input ligand: none) [nM] | apparent KD of MS2 coat protein [2] [nM] | apparent KD of MS2 coat protein [3] [nM] | apparent KD of MS2 coat protein [4] [nM] |
| --- | --- | --- | --- | --- | --- | --- |
| AGUAGUUUAACAUGAGGAUCACCCAUGUAUCUAUCUGUAACCUAGGAUAUGGACGUUUUAUUUAACCAGAAGGAGGAUCGUUUA [JR_SSNG3_Sub045] (Eterna round: R96, puzzle: Same State NG 3) | 17.1 | 16.9 | 25.3 | – | – | – |
| UUAAUUAAUUAAUUAUACAUGAGGAUCACCCAUGUAAGUGAUCAGGAUAUCAGCUCGUUUAGAGCUGAGAAGGGAUCCAUGUAA [SSNG3/14-A3] (Eterna round: R96, puzzle: Same State NG 3) | 85.7 | 135 | 150 | – | – | – |
| GUGCAACCGUGUGAGGAUAUCGGUGAUCAGACAUGAGGAUCACCCAUGUCCGAAGCUCGGAUCUCCGAGAAGGCGCACAGUUGCA [Same State 2 - Mod of Erisin v.6] (puzzle: Same State 2) | – | – | – | 92.8 | 232 | 296 |
| GCUCGGCUGAUGGCCUACAUGAGGAUCACCCAUGUGUGUGGGCAGGAUAUCUAGAUUAAGGAUGUAGAGAAGGGCCUGCCGAGC [SameState NG3 #38] (Eterna round: R96, puzzle: Same State NG 3) | 2620 | 340 | 972 | – | – | – |
| AUAAAACAUGAGGAUCACCCAUGUAGACGGAGAGCCGUCACAUAGGAUAUAGCCAGCGGUGUUGGCUAGAAGGGUGGUAGAAAA [Lavezaer] (Eterna round: R96, puzzle: Same State NG 3) | 59.8 | 78.1 | 130 | – | – | – |
| GUAGCAUACCGAGGAUAUUCAUAUAAUACAUGAGGAUCACCCAUGUUAUAUAGGCGAAAGCCUUGGGAGAAGGCGGAAUGCUAC [Xeonanis - 20 Mod65] (Eterna round: R96, puzzle: Same State NG 2) | – | 10.9 | – | – | – | – |
| UUAAUGAUGUAAGGAUAUACAUGAGGAUUUCUCGUAGAAGGUACAGGACAUGAGGAUCACCCAUGUGUCGCUCAGAAGAGCGUA [Mat - Same State NG 1 - JL mod - D17] (Eterna round: R96, puzzle: Same State NG 1) | 509 | 505 | 636 | – | – | – |
| GUAGCAUACCGAGGAUAUUCAUUACAUGAGGAUCACCCAUGUUAAUUAUAGGCCAAAAGGCCUUGGGAGAAGGCGGAAUGCUAC [Xeonanis - 20 Mod13] (Eterna round: R96, puzzle: Same State NG 2) | 12.2 | 8.28 | 13.3 | – | – | – |
| GGCAGGUGCAGGCUUGCUUGCACCUGGAAACAUGAGGAUCACCCAUGUUUGGGACAAGCUUUGCUCUUCGUUUUGUC [JL ViennaUCT Isusreraar mod 4] (puzzle: Sensor for hsa-mir-208a) | – | – | – | 35.3 | 40.4 | 47 |
| UCUUGGUUUUUGCUCGUUUUUUGUGUUGAACAUGAGGAUCACCCAUGUAUUGUACAGUCCGGUUUAGUGAUGGUCCG [JMF 58] (puzzle: Sensor for hsa-mir-208a) | – | – | – | 40.2 | 32.6 | 45 |
| UUUAUACAUGAGGAUCACCCAUGUCAACAAAGUCGAGGAUAUGGGCAUAUUAUCUUAUUUCCAGAAGGCGAAUUCU [salish99_ss1_r3_090] (Eterna round: R96, puzzle: Same State 1) | 101 | 305 | 378 | – | – | – |
| GGAGAGAGAGCGCAGGAUAUUCAAGGAGAAACAUGAGGAUCACCCAUGUGAGAGAGAGAGGAGAGGGAGAAGGGUGAGAGAGAGG [Altered State 2-13 - Jieux - Same State 2] (puzzle: Same State 2) | – | – | – | 23.1 | 30.4 | 33.6 |
